Consider one molecule from patent publication US20230303719, “HUMANIZED 3E10 ANTIBODIES, VARIANTS, AND ANTIGEN BINDING FRAGMENTS THEREOF” (YALE UNIVERSITY, published 2023).

Data set [1] concerns the target 3E10-D31N IgG4 S228P/F234A/L235A/T307Q/N434A (synthetic construct, UniProt P01861; SEQ:1-443,SEQ:1-218). Description: BLI; 1:1 model; antibody on AHC2 sensor; RNA 62.5-500 nM. Particulars: tags: human IgG4 Fc; chain copies: 2 heavy + 2 light (inferred); hairpin.
Data set [2] deals with 3E10-D31N IgG4 S228P/F234A/L235A (synthetic construct, UniProt P01861; SEQ:1-443,SEQ:1-218). The description is as above. As to conditions: tags: human IgG4 Fc; chain copies: 2 heavy + 2 light (inferred); hairpin.
The target of data set [3] is 3E10-D31N IgG4 S228P/F234A/L235A/H310Q (synthetic construct, UniProt P01861; SEQ:1-443,SEQ:1-218). The description is as above. As to conditions: tags: human IgG4 Fc; chain copies: 2 heavy + 2 light (inferred); hairpin.
For data set [4], the target named is 3E10-D31N IgG4 S228P/F234A/L235A/M252Y/S254T/T256E (synthetic construct, UniProt P01861; SEQ:1-443,SEQ:1-218). The description is as above. As to conditions: tags: human IgG4 Fc; chain copies: 2 heavy + 2 light (inferred); hairpin.
The target of data set [5] is 3E10-D31N (chimeric, murine VH/VL). Described as above. As to conditions: tags: human Fc IgG; chain copies: 2 heavy + 2 light (inferred); hairpin.
Another data set addresses humanized 3E10 V66 (CHO) (synthetic construct, UniProt P01857; SEQ:1-446,SEQ:1-218). The data set can be described thus: BLI; 1:1 model; antibody on AHC2 sensor; ka 3.08E5, kdis 7.99E-4. As to conditions: tags: human Fc IgG; transiently expressed in CHO; chain copies: 2 heavy + 2 light (inferred); hairpin.
The target of data set [6] is 3E10-D31N (chimeric, murine VH/VL). Description: BLI; 1:1 model; antibody on AHC2 sensor; ka 2.29E5, kdis 4.76E-4. As to conditions: tags: human Fc IgG; chain copies: 2 heavy + 2 light (inferred); hairpin.
Data set [7] concerns the target humanized 3E10 V66 (HEK293) (synthetic construct, UniProt P01857; SEQ:1-446,SEQ:1-218). The data set can be described thus: BLI; 1:1 model; antibody on AHC2 sensor; ka 2.42E5, kdis 3.13E-4. Particulars: tags: human Fc IgG; transiently expressed in HEK293; chain copies: 2 heavy + 2 light (inferred); hairpin.

humanized 3E10 V66 (CHO), sequence (P01857 other isoform, or with tags, fused parts or gaps, chain 1 of 2): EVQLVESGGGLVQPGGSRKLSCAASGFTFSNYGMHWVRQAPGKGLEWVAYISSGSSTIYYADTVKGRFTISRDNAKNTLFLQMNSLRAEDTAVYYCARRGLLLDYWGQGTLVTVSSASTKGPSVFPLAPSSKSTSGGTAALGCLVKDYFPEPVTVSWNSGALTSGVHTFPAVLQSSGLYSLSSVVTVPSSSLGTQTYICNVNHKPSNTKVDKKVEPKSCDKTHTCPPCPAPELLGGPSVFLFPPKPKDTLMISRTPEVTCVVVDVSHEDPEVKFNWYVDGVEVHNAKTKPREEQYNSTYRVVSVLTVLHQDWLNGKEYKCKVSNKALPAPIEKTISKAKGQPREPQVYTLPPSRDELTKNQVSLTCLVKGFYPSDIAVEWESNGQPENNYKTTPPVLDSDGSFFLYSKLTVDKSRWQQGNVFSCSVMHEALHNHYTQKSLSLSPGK
humanized 3E10 V66 (CHO), sequence (chain, as listed by the source, chain 2 of 2): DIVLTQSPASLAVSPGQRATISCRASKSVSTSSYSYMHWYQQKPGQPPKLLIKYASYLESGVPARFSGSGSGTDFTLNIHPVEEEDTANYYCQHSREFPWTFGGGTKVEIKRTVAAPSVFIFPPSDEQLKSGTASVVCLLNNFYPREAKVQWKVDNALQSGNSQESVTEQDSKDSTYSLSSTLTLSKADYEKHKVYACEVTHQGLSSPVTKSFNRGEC
humanized 3E10 V66 (HEK293), sequence (P01857 other isoform, or with tags, fused parts or gaps, chain 1 of 2): as the sequence (P01857 other isoform, or with tags, fused parts or gaps, chain 1 of 2) above
humanized 3E10 V66 (HEK293), sequence (chain, as listed by the source, chain 2 of 2): as the sequence (chain, as listed by the source, chain 2 of 2) above

B1: 3p-hpRNA RIG-I agonist (89 nt) (ssRNA)
RNA: GGAGCAAAAGCAGGGUGACAAAGACAUAAUGGAUCCAAACACUGUGUCAAGCUUUCAGGUAGAUUGCUUUCUUUGGCAUGUCCGCAAAC
modifications: 5'-triphosphate
With B1, the Kd in data set [1] is 12.7 nM; in data set [2], 3.33 nM; in data set [3], 6.58 nM; in data set [4] it was 5 nM; in data set [5] it was 10.5 nM; with humanized 3E10 V66 (CHO) it was 2.6 nM. The dissociation constant (Kd) in data set [6] was 2.08 nM; in data set [7], 1.3 nM.
